Literature values in paper PMC3569056.

Molecular target: Cys22 (UniProt position 23, FIKPTCPYCRR)
Assay: chemical modification

In the case of “Glutaredoxin 1 (hGrx1, thioltransferase) (Homo sapiens)”, the pKa is given as 3.5.
